Consider one protein from PMC6757426, “Stability and flexibility of full-length human oligodendrocytic QKI6” (BMC Research Notes, 2019).

This data set deals with the molecule itself. In words: SEC-MALS; Superdex 200 pg increase 10/300GL, 20 mM Tris-HCl, 300 mM NaCl, 0.5 mM TCEP, pH 8.0; 200 ug QKI6 injected at 0.4 ml/min; no RNA.

B1: Quaking isoform 6 (QKI6), full-length human (natural protein, UniProt Q96PU8-9 1-319, looked up)
chain: MVGEMETKEKPKPTPDYLMQLMNDKKLMSSLPNFCGIFNHLERLLDEEISRVRKDMYNDTLNGSTEKRSAELPDAVGPIVQLQEKLYVPVKEYPDFNFVGRILGPRGLTAKQLEAETGCKIMVRGKGSMRDKKKEEQNRGKPNWEHLNEDLHVLITVEDAQNRAEIKLKRAVEEVKKLLVPAAEGEDSLKKMQLMELAILNGTYRDANIKSPALAFSLAATAQAAPRIITGPAPVLPPAALRTPTPAGPTIMPLIRQIQTAVMPNGTPHPTAAIVPPGPEAGLIYTPYEYPYTLAPATSILEYPIEPSGVLGMAFPTKG
notes: Quaking isoform 6 (QKI6), human, UniProt Q96PU8-9, amino acids 1-319; calculated molecular weight of the construct 35,187.8 Da; also called full-length QKI6; human QKI6; source: E. coli BL21(DE3), purified (Ni-NTA, TEV digestion, second Ni-NTA, gel filtration on Superdex 200)
Consider B1, for which the stoichiometry N (usually the number of molecules, sites or subunits per partner or assembly) stood at 2.
